Patent US20250043319A1, “BIOSYNTHESIS OF CYCLOLAVANDULYL DERIVATIVES OF AROMATIC COMPOUNDS” (Invizyne Technologies, Inc., priority 2022, published 2025)

How the values were obtained:
Type in all cases: biochemical
[1] = cell-free cyclolavandulylation activity screening of prenyltransferases, substrate resveratrol; conditions: cell-free reaction with CLDS and DMAPP (CLPP donor), 28° C., 48 hours, QTOF LC/MS, with vs without prenyltransferase
Excerpt: (§1) Genes encoding the following prenyltransferases were codon-optimized, synthesized, and cloned into the pET28a vector for protein expression and isolation/purification as described in Example 1. • NphB (Accession: 1ZB6_A) (SEQ ID NO: 8) • AbPT (Accession: KPI30840.1) (SEQ ID NO: 9) • SkPT (Accession: Q2L6E3.1) (SEQ ID NO: 10) • SvPT (Accession: WP_078899560.1) (SEQ ID NO: 11) • Sr1310PT (Accession: WP_057602682.1) (SEQ ID NO: 12) • NapT8 (Accession: ABS50461.1) (SEQ ID NO: 13) • NapT9 (Accession: ABS50490.1) (SEQ ID NO: 14) • Mcl23PT (Accession: AGH68908.1) (SEQ ID NO: 15) • CnqP3PT (Accession: WP_047018069.1) (SEQ ID NO: 16) • AtaWTPT (Accession: AMB20850.1) (SEQ ID NO: 17) • MzPT1 (Accession: WP_135330628.1) (SEQ ID NO: 18) • MzPT2 (Accession: WP_135330626.1) (SEQ ID NO: 19) B. Cell-Free Biosynthesis Reaction with CLPP and Various Aromatic Substrates
(§2) The cyclolavandulyl diphosphate synthase, CLDS was prepared as described in Example 1 and used in the synthesis of CLPP.
(§3) Stocks of the various aromatic compounds used as substrates for cyclolavandulylation activity screening were obtained from the following commercial sources: • Resveratrol (Fisher Scientific) 200 mM stock in DMSO • Luteolin (Fisher Scientific) 200 mM stock in DMSO • Naringenin (Fisher Scientific) 200 mM stock in DMSO • Tryptamine (Fisher Scientific) 200 mM stock in DMSO • Tryptophan (Fisher Scientific) 40 mM stock in water • Olivetolic acid (Toronto Research Chemicals) 200 mM stock in DMSO • Divarinic acid (Toronto Research Chemicals) 200 mM stock in DMSO • Phorolic acid (prepared in house) 200 mM stock in DMSO • Olivetol (Fisher Scientific) 200 mM stock in DMSO • Screening for cell-free biosynthesis was carried out as follows. 10 mM DMAPP, 5 mM MgCl2, 100 mM Tris-HCl (pH=8), and 4 mg/mL CLDS (SEQ ID NO: 4) were combined in a 6.80 mL reaction, which was incubated at 28° C. for 48 hours. This mixture was aliquoted into a 96-well plate (80 μL per well). The various prenyltransferases (18 μL, ˜1 g/L final concentration) listed above were screened across various substrates (2 μL of stock solution, variable concentration shown above), which were added to the wells and incubated at 28° C. for an additional 48 hours.
(§4) Analysis of the reaction mixture was carried out as follows: 50 μL of the reaction mixture were added to 1 mL MeOH. The resulting solution was vortexed, centrifuged at 17,200 g for 5 minutes, and transferred to an HPLC vial for analysis. HRMS-QTOF analyses of the cell free reactions was performed on an Agilent Technologies 6545 Accurate Mass QTOF LC/MS with a reverse-phase column (Agilent Infinity Lab Poroshell 120 ECC18, 2.7 μm, 3.0×50 mm) using positive ESI with 1% MeCN—H2O (0.1% FA) for 2 min followed by a linear gradient of 1-99% MeCN—H2O (0.1% FA) for 14 min with a flow rate of 0.4 mL/min.
(§5) Mass spectrometric (MS) analysis of chromatograms was carried out using MassHunter Qualitative Analysis 10.0. Targeted metabolomics using the exact m/z of the calculated proton adduct [H^+] in the presence and absence of prenyltransferase indicated the presence of cyclolavandulylated product.

[2] = cell-free cyclolavandulylation activity screening of prenyltransferases, substrate luteolin; conditions: cell-free reaction with CLDS and DMAPP (CLPP donor), 28° C., 48 hours, QTOF LC/MS, with vs without prenyltransferase
Excerpt: as §1, §2, §3, §4, §5

[3] = cell-free cyclolavandulylation activity screening of prenyltransferases, substrate naringenin; conditions: cell-free reaction with CLDS and DMAPP (CLPP donor), 28° C., 48 hours, QTOF LC/MS, with vs without prenyltransferase
Excerpt: as §1, §2, §3, §4, §5

[4] = cell-free cyclolavandulylation activity screening of prenyltransferases, substrate tryptamine; conditions: cell-free reaction with CLDS and DMAPP (CLPP donor), 28° C., 48 hours, QTOF LC/MS, with vs without prenyltransferase
Excerpt: as §1, §2, §3, §4, §5

[5] = cell-free cyclolavandulylation activity screening of prenyltransferases, substrate tryptophan; conditions: cell-free reaction with CLDS and DMAPP (CLPP donor), 28° C., 48 hours, QTOF LC/MS, with vs without prenyltransferase
Excerpt: as §1, §2, §3, §4, §5

[6] = cell-free cyclolavandulylation activity screening of prenyltransferases, substrate olivetolic acid; conditions: cell-free reaction with CLDS and DMAPP (CLPP donor), 28° C., 48 hours, QTOF LC/MS, with vs without prenyltransferase
Excerpt: as §1, §2, §3, §4, §5

[7] = cell-free cyclolavandulylation activity screening of prenyltransferases, substrate divarinic acid; conditions: cell-free reaction with CLDS and DMAPP (CLPP donor), 28° C., 48 hours, QTOF LC/MS, with vs without prenyltransferase
Excerpt: as §1
(§6) The cyclolavandulyl diphosphate synthase, CLDS was prepared as described in Example 1 and used in the synthesis of CLPP. […]
as §5

[8] = cell-free cyclolavandulylation activity screening of prenyltransferases, substrate phorolic acid; conditions: cell-free reaction with CLDS and DMAPP (CLPP donor), 28° C., 48 hours, QTOF LC/MS, with vs without prenyltransferase
Excerpt: as §1, §6, §5

[9] = cell-free cyclolavandulylation activity screening of prenyltransferases, substrate olivetol; conditions: cell-free reaction with CLDS and DMAPP (CLPP donor), 28° C., 48 hours, QTOF LC/MS, with vs without prenyltransferase
Excerpt: as §1, §6, §5

[10] = cell-free cyclolavandulylation activity screening of prenyltransferases, summary over all tested substrates; conditions: any of the tested substrates; cell-free biosynthesis reaction with CLDS from Streptomyces sp. CL190 and DMAPP
Excerpt: as §1, §2, §3, §4, §5

Row | Molecule | presence of cyclolavandulylated product, Aromatic Compound (Substrate) Resveratrol [1] | presence of cyclolavandulylated product, Aromatic Compound (Substrate) Luteolin [2] | presence of cyclolavandulylated product, Aromatic Compound (Substrate) Naringenin [3] | presence of cyclolavandulylated product, Aromatic Compound (Substrate) Tryptamine [4] | presence of cyclolavandulylated product, Aromatic Compound (Substrate) Tryptophan [5] | presence of cyclolavandulylated product, Aromatic Compound (Substrate) Olivetolic Acid [6] | presence of cyclolavandulylated product, Aromatic Compound (Substrate) Divarinic Acid [7] | presence of cyclolavandulylated product, Aromatic Compound (Substrate) Phorolic Acid [8] | presence of cyclolavandulylated product, Aromatic Compound (Substrate) Olivetol [9] | cyclolavandulylation activity with tested aromatic compounds (summary of Table 7) [10]
1 | NphBM31s: engineered soluble variant of prenyltransferase NphB from Streptomyces sp. CL190, SEQ ID NO: 6 (protein, Synthetic polymer) MSEAADVERVYAAIEEAAGLLGVACARDKIWPLLSTFQDTLVEGGSVVVFSMASGRHSTELDFSISVPPSHGDPYAIVVEKGLFPATGHPVDDLLADIQKHLPVSMFAIDGEVTGGFKKTYAFFPTDNMPGVAELAAIPSMPPAVAENAELFARYGLDKVQMTSMDYKKRQVNLYFSELSAQTLEAESVLALVRELGLHVPNELGLKFCKRSFSVYPTLNWDTSKIDRLCFSVISTDPTLVPSSDEGDIEKFHNYATKAPYAYVGEKRTLVYGLTLSPKEEYYKLGAVYHITDVQRKLLKAFDSLED | Yes | No | No | No | No | Yes | Yes | No | No | produced a cyclolavandulylated aromatic compound
2 | NphB: naturally occurring prenyltransferase from Streptomyces sp. CL190, Accession: 1ZB6_A, SEQ ID NO: 8 (protein, listed as Streptomyces sp.) MSEAADVERVYAAMEEAAGLLGVACARDKIYPLLSTFQDTLVEGGSVVVFSMASGRHSTELDFSISVPTSHGDPYATVVEKGLFPATGHPVDDLLADTQKHLPVSMFAIDGEVTGGFKKTYAFFPTDNMPGVAELSAIPSMPPAVAENAELFARYGLDKVQMTSMDYKKRQVNLYFSELSAQTLEAESVLALVRELGLHVPNELGLKFCKRSFSVYPTLNWETGKIDRLCFAVISNDPTLVPSSDEGDIEKFHNYATKAPYAYVGEKRTLVYGLTLSPKEEYYKLGAYYHITDVQRGLLKAFDSLED | No | No | Yes | No | Yes | No | – | – | – | produced a cyclolavandulylated aromatic compound
3 | AbPT: prenyltransferase, Accession: KPI30840.1, SEQ ID NO: 9 (protein, listed as Actinomyces sp.) MSGKANIQRVYSAVEEAADLLDIACSREQMWPTLTAFEDVLTDGAIVFNMVTSGGRIGDLSFDFTLPPSAGDPYELALAHGLVDETDHPVRALFSDIQARFPLQAYGVDHGITSGFHKTYAFFPLGDLQSVAELADIPSMPSGLSEHVTSFAAYGLDDKVSAIAIDYARRTWNVYFNGLSAPHVQRTAVLSMLSEFGLPEPSAQLLEFIETSSALYPTFGWDSSKIERISFSTRTTDPVALPARIEPKLEKFARSAPHVYEGERVLVYAGALSPSEEYYKLATYYQMTAAAHDRVRSAN | No | No | No | No | Yes | No | – | – | – | produced a cyclolavandulylated aromatic compound
4 | NapT9: prenyltransferase, Accession: ABS50490.1, SEQ ID NO: 14 (protein, listed as Streptomyces sp.) MSGATGAEKLYSAIEESARMVDAPFSRDKVWPTLSAFEGGFSDAGGVILSLQAGTHVPEMEYSAQVSPGISDPYARALASGILTETDHPVSTVLAEIVSLAPTSEHYIDCGIVGGFKKIYANFPHDQQTVAALAGLPSMPRAVGGNAEFFARHGLDRVALIGVDYVNKTINLYFQVSAATAGNLDQKTVSAMLHETGMSEPSDAMVAYACQAYRIYTTLSWDAQEILRIAFAPKPRRGIDPADLPARLEPRIEKFLRATPHKYPGALINATAAKWSPEREVLDLAAHYQVSAVQMKAIEAEEGQAS | No | Yes | No | No | No | No | – | – | – | produced a cyclolavandulylated aromatic compound
5 | AtaWTPT: prenyltransferase, Accession: AMB20850.1, SEQ ID NO: 17 (protein, listed as Aspergillus terreus) MLPPSDSKDPRPWQILSQALGFPNYDQELWWQNTAETLNRVLEQCDYSVHLQYKYLAFYHKYILPSLGPFRRPGVEPEYISGLSHGGHPLEISVKIDKSKTICRLGLQAIGPLAGTARDPLNSFGDRELLKNLATLLPHVDLRLFDHFNAQVGLDRAQCAVATTKLIKESHNIVCTSLDLKDGEVIPKVYFSTIPKGLVTETPLFDLTFAAIEQMEVYHKDAPLRTALSSLKDFLRPRVPTDASITPPLTGLIGVDCIDPMLSRLKVYLATFRMDLSLIRDYWTLGGLLTDAGTMKGLEMVETLAKTLKLGDEACETLDAERLPFGINYAMKPGTAELAPPQIYFPLLGINDGFIADALVEFFQYMGWEDQANRYKDELKAKFPNVDISQTKNVHRWLGVAYSETKGPSMNIYYDVVAGNVARV | Yes | No | Yes | No | Yes | No | – | – | – | produced a cyclolavandulylated aromatic compound
6 | MzPT1: prenyltransferase, Accession: WP_135330628.1, SEQ ID NO: 18 (protein, listed as Streptomyces sp.) MSRTAEVERVYSAIEEAAGLLSAVCSRDNVWPVLDAFGDELAEAMIVFGGQAGDRHAGELDYSFTVPSSIGNPYPHALSRGLVTETDHPVGSVLSDIQGRWPIKEHFVDAGVVGGFKKLYAHFPDNMQKVSDIADIPSMPRAVAENAALFARYGLDQVAMIGVDYRHKTVSVYFHFGPDGRPEPSTIRALLSDLGMPEPDEPTLEFAHKSLRVNITLGWETGDVIRVAFAPPPVRGLDPSALPGQLTPRMEEFARVSPRAYAGGRVNMYAVKWMRGEEFHEVCTYYQLTPWYEKILTDAPKEQQG | No | No | No | No | No | Yes | – | – | – | produced a cyclolavandulylated aromatic compound
